Among the data in publication PMC7718258 are ATPase activity of mjBud32 (ADP Glo assay), potentiation by mjCgi121 values, retold here.

In this assay the target is Methanocaldococcus jannaschii Bud32 (Methanocaldococcus jannaschii) (UniProt Q58530).
Sequence of Methanocaldococcus jannaschii Bud32 (Methanocaldococcus jannaschii) (Q58530 whole entry): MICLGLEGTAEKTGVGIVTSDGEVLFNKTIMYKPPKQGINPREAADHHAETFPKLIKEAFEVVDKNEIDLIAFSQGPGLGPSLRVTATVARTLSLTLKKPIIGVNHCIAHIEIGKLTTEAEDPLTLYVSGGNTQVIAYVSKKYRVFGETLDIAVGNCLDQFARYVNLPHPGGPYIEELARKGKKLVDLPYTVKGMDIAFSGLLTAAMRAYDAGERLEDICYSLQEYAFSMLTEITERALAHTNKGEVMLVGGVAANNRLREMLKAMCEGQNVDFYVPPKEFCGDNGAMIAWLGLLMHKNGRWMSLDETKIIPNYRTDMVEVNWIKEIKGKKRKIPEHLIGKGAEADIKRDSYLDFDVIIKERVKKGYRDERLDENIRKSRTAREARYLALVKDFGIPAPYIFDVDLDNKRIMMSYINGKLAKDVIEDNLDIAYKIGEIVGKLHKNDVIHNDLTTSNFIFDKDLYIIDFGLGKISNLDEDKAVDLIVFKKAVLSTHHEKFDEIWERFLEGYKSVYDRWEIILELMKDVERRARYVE

B1: Methanocaldococcus jannaschii Cgi121 (natural protein)
chain: MIIRGIRGARINNEIFNLGLKFQILNADVVATKKHVLHAINQAKTKKPIAKSFWMEILVRASGQRQIHEAIKIIGAKDGNVCLICEDEETFRKIYELIGGEIDDSVLEINEDKERLIREIFKIRGFGNVVERVLEKIALIELKKE
B1: the ATPase activity of mjBud32 (ADP Glo assay), potentiation by mjCgi121 came out at 10 fold.
